For the series, the system named is Escherichia coli TOP10. Description: shrunken log2 fold change of peptide-encoding DNA abundance (4.5 h post-induction vs induction); higher = less antimicrobial activity (less host growth inhibition). The conditions noted are these: time post-induction: 4.5 h; library: site-saturation at positions 5, 18, 19, 20.
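Also: peptides expressed intracellularly from a pBAD plasmid library in pooled LB shake-flask culture, induced with 0.3% L-arabinose, DNA abundance read by NGS, three biological replicates, DESeq2 with apeglm shrinkage.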

In the case of RRIRWRPPRLPRPRPRPWLGPRP, the “shrunken log2 fold change” value is 0.00929.

With RRIRERPPRLPRPRPRPAYAPRP, the “shrunken log2 fold change” value was 0.0657. The result for RRIRYRPPRLPRPRPRPCKRPRP reads -0.0961. In the case of RRIRSRPPRLPRPRPRPKTAPRP, the “shrunken log2 fold change” value worked out at 0.097. The result for RRIRIRPPRLPRPRPRPRISPRP reads -0.127; that for RRIRMRPPRLPRPRPRPWEIPRP, -0.00146.

As to RRIRHRPPRLPRPRPRPSCMPRP, the “shrunken log2 fold change” value is -0.224. The result for RRIRFRPPRLPRPRPRPKRQPRP reads 0.401; that for RRIRRRPPRLPRPRPRPNTFPRP, 0.085; that for RRIRIRPPRLPRPRPRPSDMPRP, -0.309. Under RRIRQRPPRLPRPRPRPNLAPRP stands 0.281; under RRIRYRPPRLPRPRPRPDYFPRP, -0.22.

Turning to RRIRPRPPRLPRPRPRPFRPPRP, the “shrunken log2 fold change” value was -0.0197.

Consider RRIRSRPPRLPRPRPRPRTMPRP, for which the “shrunken log2 fold change” value came out at 0.108. On to RRIRDRPPRLPRPRPRPAREPRP, for which the “shrunken log2 fold change” value stood at 1.06. Regarding RRIRGRPPRLPRPRPRPARQPRP, the “shrunken log2 fold change” value came to 0.654. Under RRIRERPPRLPRPRPRPREKPRP stands 0.354. Turning to RRIRHRPPRLPRPRPRPWTIPRP, the “shrunken log2 fold change” value is -0.0445. As to RRIRNRPPRLPRPRPRPKQQPRP, the “shrunken log2 fold change” value was 0.163. Under RRIRVRPPRLPRPRPRPRKPPRP stands 0.0947. Regarding RRIRQRPPRLPRPRPRPIFRPRP, the “shrunken log2 fold change” value was 0.0716. The result for RRIRVRPPRLPRPRPRPMMFPRP reads -0.0953; that for RRIRYRPPRLPRPRPRPMVTPRP, 0.0309. The result for RRIRNRPPRLPRPRPRPRDDPRP reads 0.145; that for RRIRHRPPRLPRPRPRPFYIPRP, -1.15; that for RRIRHRPPRLPRPRPRPGQIPRP, -0.00195. Under RRIRKRPPRLPRPRPRPHQQPRP stands -0.0506; under RRIRWRPPRLPRPRPRPASYPRP, 0.151; under RRIRERPPRLPRPRPRPPYKPRP, -0.107. RRIRSRPPRLPRPRPRPMPKPRP: the “shrunken log2 fold change” value was determined as 0.0763.

On to RRIRDRPPRLPRPRPRPWGVPRP, for which the “shrunken log2 fold change” value was 0.0789. Under RRIRERPPRLPRPRPRPVVKPRP stands -0.413.

As for RRIRIRPPRLPRPRPRPHTVPRP, the “shrunken log2 fold change” value is -0.588. Take RRIRWRPPRLPRPRPRPTNPPRP: the “shrunken log2 fold change” value was -0.0172. RRIRMRPPRLPRPRPRPAHDPRP: the “shrunken log2 fold change” value was found to be 0.673.

As to RRIRQRPPRLPRPRPRPDVEPRP, the “shrunken log2 fold change” value is -0.0335. The result for RRIRNRPPRLPRPRPRPVNYPRP reads -0.179; that for RRIRYRPPRLPRPRPRPCALPRP, -0.671. For RRIRPRPPRLPRPRPRPQQTPRP, the “shrunken log2 fold change” value was 0.183.

Take RRIRPRPPRLPRPRPRPTMVPRP: the “shrunken log2 fold change” value was -0.0466. On to RRIRFRPPRLPRPRPRPKSWPRP, for which the “shrunken log2 fold change” value is 0.199.

Turning to RRIRERPPRLPRPRPRPAKAPRP, the “shrunken log2 fold change” value was 0.0877. For the sequence RRIRDRPPRLPRPRPRPEATPRP, the “shrunken log2 fold change” value is 1.98.

RRIRCRPPRLPRPRPRPHMPPRP: the “shrunken log2 fold change” value is -0.585. Turning to RRIRLRPPRLPRPRPRPRMDPRP, the “shrunken log2 fold change” value is -0.106. Under RRIRCRPPRLPRPRPRPFPGPRP stands -0.0106; under RRIRVRPPRLPRPRPRPDGGPRP, -0.0572; under RRIRMRPPRLPRPRPRPCPFPRP, -0.241. Turning to RRIRGRPPRLPRPRPRPEDMPRP, the “shrunken log2 fold change” value stood at 1.02. Under RRIRLRPPRLPRPRPRPHSKPRP stands -0.129. The result for RRIRCRPPRLPRPRPRPNPFPRP reads -0.024; that for RRIRCRPPRLPRPRPRPVYLPRP, -0.646. Regarding RRIRIRPPRLPRPRPRPHEKPRP, the “shrunken log2 fold change” value is -0.123. As to RRIRMRPPRLPRPRPRPRDQPRP, the “shrunken log2 fold change” value amounted to 0.776. With RRIRSRPPRLPRPRPRPEMQPRP, the “shrunken log2 fold change” value turned out to be 0.0419. Under RRIRWRPPRLPRPRPRPIWAPRP stands 0.00581; under RRIRKRPPRLPRPRPRPWQSPRP, 0.0203. The result for RRIRLRPPRLPRPRPRPLFNPRP reads -0.468. On to RRIRVRPPRLPRPRPRPFEMPRP, for which the “shrunken log2 fold change” value is -0.572. Take RRIRHRPPRLPRPRPRPFWQPRP: the “shrunken log2 fold change” value was determined as 0.0187. As to RRIRNRPPRLPRPRPRPPWTPRP, the “shrunken log2 fold change” value came to 0.272. With RRIRKRPPRLPRPRPRPYPRPRP, the “shrunken log2 fold change” value was -0.00783. Under RRIRDRPPRLPRPRPRPIHFPRP stands -0.0728; under RRIRERPPRLPRPRPRPINIPRP, -0.973; under RRIRFRPPRLPRPRPRPCHFPRP, -0.00959. As for RRIRMRPPRLPRPRPRPRRMPRP, the “shrunken log2 fold change” value was 0.73. Under RRIRFRPPRLPRPRPRPVFKPRP stands -0.57; under RRIRVRPPRLPRPRPRPSENPRP, 0.0175. The result for RRIRARPPRLPRPRPRPVAWPRP reads 0.474; that for RRIRSRPPRLPRPRPRPCYWPRP, -0.121. The result for RRIRHRPPRLPRPRPRPGEDPRP reads 0.0147. Consider RRIRGRPPRLPRPRPRPLRSPRP, for which the “shrunken log2 fold change” value was found to be 1.67. Take RRIRIRPPRLPRPRPRPCMDPRP: the “shrunken log2 fold change” value is -0.695. Under RRIRVRPPRLPRPRPRPGGLPRP stands 0.00797. Take RRIRHRPPRLPRPRPRPFPTPRP: the “shrunken log2 fold change” value was -0.0427.

As to RRIRNRPPRLPRPRPRPVYLPRP, the “shrunken log2 fold change” value was -0.216. For RRIRKRPPRLPRPRPRPFSIPRP, the “shrunken log2 fold change” value was -0.0639. The result for RRIRNRPPRLPRPRPRPFKYPRP reads -0.133; that for RRIRGRPPRLPRPRPRPDVMPRP, 1.33. RRIRFRPPRLPRPRPRPFWCPRP: the “shrunken log2 fold change” value was -0.27. As for RRIRQRPPRLPRPRPRPTYMPRP, the “shrunken log2 fold change” value was -0.106. Under RRIRVRPPRLPRPRPRPRRRPRP stands 0.271; under RRIRDRPPRLPRPRPRPPKPPRP, 0.214. As for RRIRFRPPRLPRPRPRPVKCPRP, the “shrunken log2 fold change” value was -0.0573. Under RRIRQRPPRLPRPRPRPYCKPRP stands -0.257; under RRIRLRPPRLPRPRPRPWHQPRP, 0.0225; under RRIRGRPPRLPRPRPRPGCYPRP, 0.345. With RRIRMRPPRLPRPRPRPIPNPRP, the “shrunken log2 fold change” value was 0.983. With RRIRSRPPRLPRPRPRPGPQPRP, the “shrunken log2 fold change” value was 0.885. As to RRIRNRPPRLPRPRPRPHLQPRP, the “shrunken log2 fold change” value is -0.198. Under RRIRWRPPRLPRPRPRPLRWPRP stands 1.08.

These data come from the supplement of paper PMC9112550, “Optimization of the antimicrobial peptide Bac7 by deep mutational scanning” (BMC Biology, 2022).
